According to US20230151091A1 (NEW YORK UNIVERSITY, published 2023):
Each block holds one binder with its values, some of them ahead of it.

Experiments:
[1] = target: T1, human MuSK (human, UniProt O15146 24-495); test: ELISA, plate coated with human MuSK at 0.2 µg/ml, dilution series of mAb, goat anti human Fc-HRP and TMB, OD 620 nm (8 min)
T1 construct: Recombinant protein coated on ELISA plates (R&D Systems cat. 10189-MK) or on the Biacore chip; also called human muscle-specific tyrosine protein kinase; full length human MuSK
T1 sequence: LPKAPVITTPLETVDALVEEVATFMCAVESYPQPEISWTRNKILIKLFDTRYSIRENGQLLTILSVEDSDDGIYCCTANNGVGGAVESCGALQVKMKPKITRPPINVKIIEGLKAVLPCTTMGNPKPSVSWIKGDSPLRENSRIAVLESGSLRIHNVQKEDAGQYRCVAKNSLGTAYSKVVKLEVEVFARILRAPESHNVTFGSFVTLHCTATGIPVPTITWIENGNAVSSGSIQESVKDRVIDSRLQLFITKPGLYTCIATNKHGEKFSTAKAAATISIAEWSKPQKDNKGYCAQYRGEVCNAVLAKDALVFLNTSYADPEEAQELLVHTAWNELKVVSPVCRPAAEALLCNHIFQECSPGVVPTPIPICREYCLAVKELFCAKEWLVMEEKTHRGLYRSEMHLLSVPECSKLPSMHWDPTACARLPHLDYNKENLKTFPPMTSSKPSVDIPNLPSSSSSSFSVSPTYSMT
Method: An ELISA plate was coated with human MuSK (R&D Systems, cat. 10189-MK) or mouse MuSK (in house produced in HEK293 cells) at 0.2 μg/ml. After washing and blocking the plate, a dilution series of the anti-MuSK antibodies was applied and allowed to bind for 2 hours at room temperature. […] OD at 620 nm was measured with a 96 well ELISA plate reader.

[2] = target: T2, hECD: full-length extracellular region of human MuSK (E22 to T495) with C-terminal Avi- and His6-tags (human, UniProt O15146 22-495, biotinylated in vitro using the BirA enzyme); test: bead-binding titration, Fab format: antigen immobilized on streptavidin beads, MFI by flow cytometry, curve is the 1:1 fit
T2 construct: also called human ECD; not shown: Avi- and His6-tags
T2 sequence: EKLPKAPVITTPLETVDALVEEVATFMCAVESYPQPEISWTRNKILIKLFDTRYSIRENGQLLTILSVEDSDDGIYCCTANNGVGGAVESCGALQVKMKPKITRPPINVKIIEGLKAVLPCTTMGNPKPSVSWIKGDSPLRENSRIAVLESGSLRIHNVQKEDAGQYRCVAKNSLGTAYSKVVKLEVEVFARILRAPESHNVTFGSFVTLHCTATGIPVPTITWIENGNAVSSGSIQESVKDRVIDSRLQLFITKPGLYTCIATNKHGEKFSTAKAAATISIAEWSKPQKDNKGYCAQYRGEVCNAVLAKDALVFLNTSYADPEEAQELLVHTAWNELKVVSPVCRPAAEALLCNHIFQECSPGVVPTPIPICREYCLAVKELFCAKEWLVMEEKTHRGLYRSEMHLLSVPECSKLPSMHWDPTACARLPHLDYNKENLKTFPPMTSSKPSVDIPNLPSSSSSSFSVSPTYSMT

[3] = target: T3, hFz: Fz domain and C-terminal flanking sequence of human MuSK (K314-T495) with C-terminal Avi- and His6-tags (human, UniProt O15146 314-495, biotinylated in vitro using the BirA enzyme); test: as above
T3 construct: also called human Fz; not shown: Avi- and His6-tags
T3 sequence: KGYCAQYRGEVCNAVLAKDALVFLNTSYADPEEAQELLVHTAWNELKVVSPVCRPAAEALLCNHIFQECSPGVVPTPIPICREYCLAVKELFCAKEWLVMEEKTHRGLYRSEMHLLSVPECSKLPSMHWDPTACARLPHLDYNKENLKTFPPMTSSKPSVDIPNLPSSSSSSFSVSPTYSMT

[4] = target: T4, mECD: full-length extracellular region of mouse MuSK (E22 to T494) with C-terminal Avi- and His6-tags (mouse, UniProt Q61006 22-494, biotinylated in vitro using the BirA enzyme); test: as above
T4 construct: range 22-494; also called mouse ECD; not shown: Avi- and His6-tags
T4 sequence (looked up): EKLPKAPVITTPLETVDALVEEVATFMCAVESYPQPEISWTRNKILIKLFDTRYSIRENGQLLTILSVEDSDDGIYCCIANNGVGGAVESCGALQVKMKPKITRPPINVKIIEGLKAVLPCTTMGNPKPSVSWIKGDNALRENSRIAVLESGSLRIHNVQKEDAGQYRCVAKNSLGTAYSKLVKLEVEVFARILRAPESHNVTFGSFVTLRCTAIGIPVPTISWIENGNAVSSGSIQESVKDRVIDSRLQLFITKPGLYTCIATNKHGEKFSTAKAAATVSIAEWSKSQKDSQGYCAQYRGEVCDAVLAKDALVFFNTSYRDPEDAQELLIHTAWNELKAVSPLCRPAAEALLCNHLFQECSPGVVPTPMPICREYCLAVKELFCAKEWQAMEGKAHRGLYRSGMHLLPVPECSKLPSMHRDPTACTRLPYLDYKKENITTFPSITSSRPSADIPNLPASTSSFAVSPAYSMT

[5] = target: T5, mFz: Fz domain and C-terminal flanking sequence of mouse MuSK (D307 to T494) with C-terminal Avi- and … (mouse, UniProt Q61006 307-494, limits assumed, biotinylated in vitro using the BirA enzyme); test: as above
T5 construct: also called mouse Fz; not shown: Avi- and His6-tags
T5 sequence (looked up): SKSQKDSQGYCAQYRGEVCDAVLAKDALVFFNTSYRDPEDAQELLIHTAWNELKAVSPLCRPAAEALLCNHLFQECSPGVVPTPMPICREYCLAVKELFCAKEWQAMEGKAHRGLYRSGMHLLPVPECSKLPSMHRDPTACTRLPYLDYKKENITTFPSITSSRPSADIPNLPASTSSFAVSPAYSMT

[6] = target: T2, hECD: full-length extracellular region …; test: bead-binding assay, Fab format: biotinylated antigen on streptavidin beads, flow cytometry, 1:1 fit; average ± s.d., n=3
[7] = target: T3, hFz: Fz domain and C-terminal flanking …; test: as above
[8] = target: T4, mECD: full-length extracellular region …; test: as above
[9] = target: T5, mFz: Fz domain and C-terminal flanking …; test: as above
[10] = target: T1, human MuSK; test: Biacore, MuSK on chip (200RU), Fab dilution series
Text: (§1) For affinity determination, a CMS chip was coated with either human or mouse MuSK (200RU) and a dilution series of the antibodies (mAbs and Fabs) was applied in order to be able to calculate the affinity.

[11] = target: T6, mouse MuSK (mouse, UniProt Q61006 22-494, limits assumed); test: Biacore, MuSK on chip (200RU), Fab dilution series
T6 construct: Coated on ELISA plates or on the Biacore chip; also called full length mouse MuSK; mouse MuSK (in house produced in HEK293 cells)
T6 sequence (looked up): T4 sequence (looked up)
Text: as §1

[12] = target: T1, human MuSK; test: Biacore T200, MuSK on chip (200RU), 22.2 nM Fab, dissociation pH 7.4
Method: (§2) In order to study pH dependent binding of the antibodies described herein to MuSK, a Biacore T200 was used. Briefly, a CMS chip was coated with human and mouse MuSK (200RU) and 22.2 nM of Fab was applied and kinetic parameters calculated. Association was done at pH7.4, dissociation was done at pH 7.4 and also at pH 5.5. The following Fabs were tested, X2, X2m4, X3, X9, X17, 3B2 and 3B2g2m1 (Table 10 and FIG. 23). […] Binding affinity at pH 5.5 is very low, resulting in a rapid dissociation at endosomal pH allowing 3B2g2m1 to recycle.

[13] = target: T6, mouse MuSK; test: as above
Method: as §2

[14] = target: T1, human MuSK; test: Biacore T200, MuSK on chip (200RU), 22.2 nM Fab, dissociation pH 5.5
Method: as §2

[15] = target: T6, mouse MuSK; test: as above
Method: as §2

[16] = target: T1, human MuSK; test: Biacore T200, off rate at pH 5.5 against pH 7.4
Method: as §2

[17] = target: T6, mouse MuSK; test: Biacore T200, off rate at pH 5.5 against pH 7.4
Method: as §2

B2: X1 Fab (Fab, V domains shown)
VH: EVQLVESGGGLVQPGGSLRLSCAASGFTFSSSSIHWVRQAPGKGLEWVASISSSSGSTSYADSVKGRFTISADTSKNTAYLQMNSLRAEDTAVYYCARKYWSQYYWAHYYGGLDYWGQGTLVTVSS
VL: DIQMTQSPSSLSASVGDRVTITCRASQSVSSAVAWYQQKPGKAPKLLIYSASSLYSGVPSRFSGSRSGTDFTLTISSLQPEDFATYYCQQSSSSLITFGQGTKVEIK
notes: m52 is the same Fab tetramerized with streptavidin; also called Fab Clone X1 (monovalent Fab format)
EC50 (read off the curve) [2]: ~0.5 nM | EC50 (read off the curve) [3]: ~0.4 nM | EC50 (read off the curve) [4]: ~1 nM | EC50 (read off the curve) [5]: ~1 nM | Kd [6]: 0.55 nM | Kd [7]: 0.39 nM | Kd [8]: 1.34 nM | Kd [9]: 1.09 nM

B3: 3B2 Fab (Fab, V domains shown)
VH: ELQLVESGGGLVQPGGSLRLSCAASGFTFDDYGMSWVRQAPGKGLEWVSAIPWNGGSTYYKESVKGRFTISRDNAKKTLYLQMNSLKSEDTAVYYCAKRSGRIAFGALDAWGQGTLVTVSS
VL: QAVVTQEPSLSVSPGGTVTLTCGLSSGSVTSSNYPDWYQQTPGQAPRGLIYSTDSRHSGVPSRFSGSISGNKAALTITGAQSEDEADYYCGLYMYSGSKNYVFGGGTKLTVL
notes: Fab format; also called Fab 3B2
Kd [10]: 3.18 nM | Kd [11]: 1.52 nM | koff [12]: 0.00388 s⁻¹ | koff [13]: 0.00347 s⁻¹ | koff [14]: 0.0224 s⁻¹ | koff [15]: 0.109 s⁻¹ | Ratio pH 5.5/7.4 of off rate [16]: 5.8 | Ratio pH 5.5/7.4 of off rate [17]: 31.5

Second part, the binder after the results:

EC50 (read off the curve) [1]: ~0.02 µg/mL
B1: 17H10 (antibody, V domains shown)
VH: QVQVQESGPGLVKPSQTLSLTCTVSGGSITARYYSWSWIRQPPGKGLEWMGVIAYDGSTYYSPSLKSRTSISRDTSKNQFSLHLSSVTPDDTAVYYCARGSSRVAAAFDSWGQGTQVTVSS
VL: SYELTQSPSVSVALRQTAKITCGGNRIGGKSVQWYQQKPGQAPMLVIYADSRRPSGIPERFTGSNSGNTATLTITGAQAEDEADYYCHVWGSTASADFGGGTHLTVL
notes: human IgG1 with the LALA mutations (L234A, L235A); produced in HEK293 cells

EC50 (read off the curve) [1]: ~0.04 µg/mL
B4: 14D10 (antibody, V domains shown)
VH: B3 VH
VL: QAVVTQEPSLSVSPGGTVTLTCGLSSGSVTSSNYPDWYQQTPGQAPRTLIYTTNSRHSGVPSRFSGSISGNKAALTITGAQPEDEADYYCALYMGGGSNVYVFG
notes: as for B1
